# T1: hIL-18Ra ECD-Fc (human, UniProt Q13478)
# T1 chain: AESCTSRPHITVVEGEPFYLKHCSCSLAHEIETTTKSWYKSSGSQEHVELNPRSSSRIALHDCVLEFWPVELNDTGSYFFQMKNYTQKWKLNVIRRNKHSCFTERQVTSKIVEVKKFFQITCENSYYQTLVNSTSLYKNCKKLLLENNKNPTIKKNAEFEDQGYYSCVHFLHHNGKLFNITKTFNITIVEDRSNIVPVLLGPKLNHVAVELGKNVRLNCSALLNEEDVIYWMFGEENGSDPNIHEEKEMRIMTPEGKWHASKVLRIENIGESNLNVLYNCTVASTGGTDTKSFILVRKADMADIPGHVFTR
# Biological target: T1, hIL-18Ra ECD-Fc
# Experiment: BLI
row,Binder,Kd [µM]
1,M36 (designed binder) YFPKLSSKLSVIRNLNDQVLFIDQGNRPLFEDMTDSDCRDNAPRTIFIISMYKASDQRGMAVTISVKCEKISTLSCENKIISFKEMNPPDGIKDTKSDIIFFQRSVPGHDNKMQFESSSYEGYFLACEKERDLFKLILKKEDELGDRSIMFTVQNED,> 1
2,M6 (designed binder) YFPKLRSKLSVIRNLNDQVLFIDQGNRPLFEDMTDSDCRDNAPRTIFIISMYKWSTPRGMAVTISVKCEKISTLSCENKIISFKEMNPPDVIKDTKSDIIFFQTSVPGHDNKMQFESSSYEGYFLACEKERDLFKLILKKEDELGDRSIMFTVQNED,> 1

# More lines, now with the values ahead:
row,Kd [µM],Binder
1,> 1,WM2 (designed binder) YFPKLRSKLSVIRNLNDQVLFIDQGNRPLFEDMTDSDCRDNAPRTIFIISMYKDSQPRGMAVTISVKCEKISTLSCENKIISFKEMNPPDNIKDTESDIIFFQRSVPGHDNKMQFESSSYEGYFLACEKERDLFKLILKKEDELGDRSIMFTVQNED
2,> 1,WM8 (designed binder) YFPKLRSKLSVIRNLNDQVLFIDQGNRPLFEDMTDSDCRDNAPRTIFIISMYKDSQPRGMAVTISVKCEKISTLSCENKIISFKEMNPPDSIKDTKSDIIFFQRSVPGHDNKMQFESSSYEGYFLACEKERDLFKLILKKEDELGDRSIMFTVQNED

# — patent US20260374834 (published 2026)
